In patent publication US20230242592A1, “IDENTIFICATION OF […] PEPTIDES AND USES THEREOF” (priority 2020, published 2023):

What was measured:
[1] = biological target: RBD-His (Sino Biological) (SARS-CoV-2) (UniProt P0DTC2); assay: BLI steady-state, CR3022 on anti-human IgG Fc tips, RBD-His as analyte
[2] = biological target: RBD-His (Sino Biological) (SARS-CoV-2) (UniProt P0DTC2); assay: BLI (summary of the working examples)

neutralizing monoclonal IgG antibody against the SARS-CoV-2 spike glycoprotein (CR3022, antibodies-online)
Kd [1]: 8.6 nM
Kd [2]: 6 nM
